The labels stand for the following.
B1: L-P-C-D-Y-Y-G-T-C-MeL-Cmp (peptide)
peptide: LPCDYYGTC[MeL][Cmp]
modifications: cysteine pairing not given here; reading uncertain; also: printed as L-P-C-D-Y-Y-G-T-C-MeL-Cmp

Starred links: 1 amine or outer side, 2 acyl side, 3 side chain; linkers in the order of their positions; H or OH if unused. Positions of bridges follow the written chain, without caps; N, C: chain ends. Non-standard residues stand in square brackets, D forms with d. Primed or numbered codes have the meaning given here. No end group written: not given here. Tyr(3-NO2) = N[C@@H](Cc1ccc(O)c([N+](=O)[O-])c1)C(=O)O; Phe(4-OMe) = COc1ccc(C[C@H](N[*:1])C(=O)[*:2])cc1; Phe(3-CF3) = N[C@@H](Cc1cccc(C(F)(F)F)c1)C(=O)O; Phe(4-CF3) = N[C@@H](Cc1ccc(C(F)(F)F)cc1)C(=O)O; Bpa = N[C@@H](Cc1ccc(C(=O)c2ccccc2)cc1)C(=O)O; Phe(4-CH2NH2) = NCc1ccc(C[C@H](N)C(=O)O)cc1; Tyr(3-Cl) = N[C@@H](Cc1ccc(O)c(Cl)c1)C(=O)O; Tyr(3-I) = N[C@@H](Cc1ccc(O)c(I)c1)C(=O)O; Phe(3-OMe) = COc1cccc(C[C@H](N)C(=O)O)c1; Phe(4-Br) = N[C@@H](Cc1ccc(Br)cc1)C(=O)O; Phe(4-CN) = N#Cc1ccc(C[C@H](N)C(=O)O)cc1; Phe(4-NH2) = Nc1ccc(C[C@H](N)C(=O)O)cc1; Phe(2-OMe) = COc1ccccc1C[C@H](N)C(=O)O; Phe(3-Me) = Cc1cccc(C[C@H](N)C(=O)O)c1; Phe(4-F) = N[C@@H](Cc1ccc(F)cc1)C(=O)O; Phe(4-I) = N[C@@H](Cc1ccc(I)cc1)C(=O)O; Phe(4-Me) = Cc1ccc(C[C@H](N)C(=O)O)cc1; 1Nal = N[C@@H](Cc1cccc2ccccc12)C(=O)O; Hyp = O=C(O)[C@@H]1C[C@@H](O)CN1; hPhe = N[C@@H](CCc1ccccc1)C(=O)O; 3Pal = N[C@@H](Cc1cccnc1)C(=O)O; 4Pal = N[C@@H](Cc1ccncc1)C(=O)O; Tle = CC(C)(C)[C@H](N)C(=O)O; Tyr(2-F)′ = not defined here; Nle = CCCC[C@H](N)C(=O)O; MTyr = not defined here; nTyr = not defined here; Cmp = not defined here

This experiment deals with DD(E) fragment of fibrin. The experiment is described as follows: affinity to DD(E) fragment of fibrin.
The Kd is the constant that tells how readily two partners part at equilibrium. For the molecule [Phe(4-OMe)][His(Bzl)]C[Hyp][Tyr(3-I)]DLCHI (disulfide 3-8 (inferred)) [F(4-OMe)-H(Bzl)-C-Hyp-Y(3-I)-D-L-C-H-I], the Kd was less than 100 nM. On to [Phe(4-OMe)]HC[Hyp][Tyr(3-I)]DLCH[Bpa]L (disulfide 3-8 (inferred)) [F(4-OMe)-H-C-Hyp-Y(3-I)-D-L-C-H-Bpa-L], for which the Kd was less than 100 nM. On to LPCDYYGTCXD (Me-Bip at 10) [L-P-C-D-Y-Y-G-T-C-Me-Bip-D], for which the Kd is less than 10000 nM.

The molecule FHC[Hyp][Tyr(3-I)]DLCHI (disulfide 3-8 (inferred)) [F-H-C-Hyp-Y(3-I)-D-L-C-H-I] came in with a Kd of less than 100 nM. Then [Phe(4-OMe)]HC[Hyp][Tyr(3-I)]DLCH[Bpa] (disulfide 3-8 (inferred)) [F(4-OMe)-H-C-Hyp-Y(3-I)-D-L-C-H-Bpa], with less than 100 nM. The figure for LPCDYYGTCXD (Bip at 10; dD at 11) [L-P-C-D-Y-Y-G-T-C-Bip-dD] is less than 10000 nM; for [MTyr]HC[Hyp][Tyr(3-I)]DLCHI (disulfide 3-8 (inferred); reading uncertain) [MTyr-H-C-Hyp-Y(3-I)-D-L-C-H-I] it is less than 100 nM. The figure for [Phe(3-OMe)]HC[Hyp][Tyr(3-I)]DLCHI (disulfide 3-8 (inferred)) [F(3-OMe)-H-C-Hyp-Y(3-I)-D-L-C-H-I] is less than 100 nM; for B1 it is less than 10000 nM. The molecule [Phe(4-Me)]HC[Hyp][Tyr(3-I)]DLCHI (disulfide 3-8 (inferred)) [F(4-Me)-H-C-Hyp-Y(3-I)-D-L-C-H-I] came in with a Kd of less than 100 nM. The figure for [Phe(4-OMe)]HC[Hyp][Tyr(3-Cl)]DLCH[Bpa]L (disulfide 3-8 (inferred)) [F(4-OMe)-H-C-Hyp-Y(3-Cl)-D-L-C-H-Bpa-L] is less than 100 nM. The figure for [hPhe]HC[Hyp][Tyr(3-I)]DLCHI (disulfide 3-8 (inferred)) [Hfe-H-C-Hyp-Y(3-I)-D-L-C-H-I] is less than 100 nM; for [Phe(4-Br)]HC[Hyp][Tyr(3-I)]DLCHI (disulfide 3-8 (inferred)) [F(4-Br)-H-C-Hyp-Y(3-I)-D-L-C-H-I] it is less than 100 nM. The figure for [Phe(4-OMe)][His(Bzl)]C[Hyp][Tyr(3-I)]DLCH[Bpa] (disulfide 3-8 (inferred)) [F(4-OMe)-H(Bzl)-C-Hyp-Y(3-I)-D-L-C-H-Bpa] is less than 100 nM; for [Phe(4-CF3)]HC[Hyp][Tyr(3-I)]DLCHI (disulfide 3-8 (inferred)) [F(4-CF3)-H-C-Hyp-Y(3-I)-D-L-C-H-I] it is less than 100 nM. As for [Phe(4-OMe)]HC[Hyp][Tyr(3-Cl)]DLCHIL (disulfide 3-8 (inferred)) [F(4-OMe)-H-C-Hyp-Y(3-Cl)-D-L-C-H-I-L], the Kd is less than 100 nM. Then [Phe(34-F2)]HC[Hyp][Tyr(3-I)]DLCHI (disulfide 3-8 (inferred)) [F(34-F2)-H-C-Hyp-Y(3-I)-D-L-C-H-I], with less than 100 nM; and [Phe(3-Me)]HC[Hyp][Tyr(3-I)]DLCHI (disulfide 3-8 (inferred)) [F(3-Me)-H-C-Hyp-Y(3-I)-D-L-C-H-I], with less than 100 nM. [Phe(4-OMe)]HC[Hyp][Tyr(3-Cl)]DLCHI (disulfide 3-8 (inferred)) [F(4-OMe)-H-C-Hyp-Y(3-Cl)-D-L-C-H-I] yielded a Kd of less than 100 nM. For [Phe(3-CF3)]HC[Hyp][Tyr(3-I)]DLCHI (disulfide 3-8 (inferred)) [F(3-CF3)-H-C-Hyp-Y(3-I)-D-L-C-H-I], the Kd was less than 100 nM.

In turn, [Phe(4-F)]HC[Hyp][Tyr(3-I)]DLCHI (disulfide 3-8 (inferred)) [F(4-F)-H-C-Hyp-Y(3-I)-D-L-C-H-I] had a Kd of less than 100 nM.

The molecule F[His(Bzl)]C[Hyp][Tyr(3-Cl)]DLCHIL (disulfide 3-8 (inferred)) [F-H(Bzl)-C-Hyp-Y(3-Cl)-D-L-C-H-I-L] yielded a Kd of less than 100 nM. The figure for FHC[Hyp][Tyr(3-Cl)]DLCHI (disulfide 3-8 (inferred)) [F-H-C-Hyp-Y(3-Cl)-D-L-C-H-I] is less than 100 nM. Turning to FHC[Hyp][Tyr(3-I)]DLCH[Phe(4-CF3)] (disulfide 3-8 (inferred)) [F-H-C-Hyp-Y(3-I)-D-L-C-H-F(4-CF3)], the Kd was less than 100 nM. Then [Tyr(2-F)′]HC[Hyp][Tyr(3-I)]DLCHI (disulfide 3-8 (inferred)) [Y(2-F)-H-C-Hyp-Y(3-I)-D-L-C-H-I], with less than 100 nM; and [1Nal]HC[Hyp][Tyr(3-I)]DLCHI (disulfide 3-8 (inferred)) [1Nal-H-C-Hyp-Y(3-I)-D-L-C-H-I], with less than 100 nM. The figure for [Tyr(3-I)]HC[Hyp][Tyr(3-I)]DLCHI (disulfide 3-8 (inferred)) [Y(3-I)-H-C-Hyp-Y(3-I)-D-L-C-H-I] is less than 100 nM. The figure for WEC[Hyp][Tyr(3-Cl)]GLCWIQ (disulfide 3-8 (inferred)) [W-E-C-Hyp-Y(3-Cl)-G-L-C-W-I-Q] is less than 100 nM; for [Tyr(3-NO2)]HC[Hyp][Tyr(3-I)]DLCHI (disulfide 3-8 (inferred)) [Y(3-NO2)-H-C-Hyp-Y(3-I)-D-L-C-H-I] it is less than 100 nM. Take [Phe(4-CH2NH2)]HC[Hyp][Tyr(3-I)]DLCHI (disulfide 3-8 (inferred)) [F(4-CH2NH2)-H-C-Hyp-Y(3-I)-D-L-C-H-I]: the Kd was less than 100 nM. The figure for [Phe(4-NH2)]HC[Hyp][Tyr(3-I)]DLCHI (disulfide 3-8 (inferred)) [F(4-NH2)-H-C-Hyp-Y(3-I)-D-L-C-H-I] is less than 100 nM; for FHC[Hyp][Tyr(3-I)]DLCH[Bpa] (disulfide 3-8 (inferred)) [F-H-C-Hyp-Y(3-I)-D-L-C-H-Bpa] it is less than 100 nM; for [DopaMe2]HC[Hyp][Tyr(3-I)]DLCHI (disulfide 3-8 (inferred)) [DopaMe2-H-C-Hyp-Y(3-I)-D-L-C-H-I] it is less than 100 nM. The figure for FHC[Hyp][Tyr(3-I)]DLCH[Nle] (disulfide 3-8 (inferred); not fully specified) [F-H-C-Hyp-Y(3-I)-D-L-C-H-Nle] is less than 100 nM. Then [Phe(4-CN)]HC[Hyp][Tyr(3-I)]DLCHI (disulfide 3-8 (inferred)) [F(4-CN)-H-C-Hyp-Y(3-I)-D-L-C-H-I], with less than 100 nM; and [nTyr]HC[Hyp][Tyr(3-I)]DLCHI (disulfide 3-8 (inferred); reading uncertain) [nTyr-H-C-Hyp-Y(3-I)-D-L-C-H-I], with less than 100 nM. Turning to FHC[Hyp][Tyr(3-Cl)]DLCHIL (disulfide 3-8 (inferred)) [F-H-C-Hyp-Y(3-Cl)-D-L-C-H-I-L], the dissociation constant Kd is less than 100 nM. Then FHC[Hyp][Tyr(3-I)]DLC[3Pal]I (disulfide 3-8 (inferred)) [F-H-C-Hyp-Y(3-I)-D-L-C-3Pal-I], with less than 100 nM; and FHC[Hyp][Tyr(3-I)]DLCH[Phe(3-CF3)] (disulfide 3-8 (inferred)) [F-H-C-Hyp-Y(3-I)-D-L-C-H-F(3-CF3)], with less than 100 nM; and [Phe(4-OMe)][His(Bzl)]C[Hyp][Tyr(3-Cl)]DLCHI (disulfide 3-8 (inferred)) [F(4-OMe)-H(Bzl)-C-Hyp-Y(3-Cl)-D-L-C-H-I], with less than 100 nM. The figure for [Phe(2-OMe)]HC[Hyp][Tyr(3-I)]DLCHI (disulfide 3-8 (inferred)) [F(2-OMe)-H-C-Hyp-Y(3-I)-D-L-C-H-I] is less than 100 nM; for LPCDYYGTCXD (Bip at 10) [L-P-C-D-Y-Y-G-T-C-Bip-D] it is less than 10000 nM; for FHC[Hyp][Tyr(3-I)]DLCH[hPhe] (disulfide 3-8 (inferred)) [F-H-C-Hyp-Y(3-I)-D-L-C-H-Hfe] it is less than 100 nM. With [Phe(4-I)]HC[Hyp][Tyr(3-I)]DLCHI (disulfide 3-8 (inferred)) [F(4-I)-H-C-Hyp-Y(3-I)-D-L-C-H-I], the Kd is less than 100 nM. Then [3Pal]HC[Hyp][Tyr(3-I)]DLCHI (disulfide 3-8 (inferred)) [3Pal-H-C-Hyp-Y(3-I)-D-L-C-H-I], with less than 100 nM.

For FHC[Hyp][Tyr(3-I)]DLCH[Tle] (disulfide 3-8 (inferred)) [F-H-C-Hyp-Y(3-I)-D-L-C-H-Tle], the Kd is less than 100 nM.

As for [Phe(4-OMe)]HC[Hyp][Tyr(3-I)]DLCHI (disulfide 3-8 (inferred)) [F(4-OMe)-H-C-Hyp-Y(3-I)-D-L-C-H-I], the Kd is less than 100 nM. Regarding FHC[Hyp][Tyr(3-I)]DLCHIL (disulfide 3-8 (inferred)) [F-H-C-Hyp-Y(3-I)-D-L-C-H-I-L], the equilibrium dissociation constant (Kd) was less than 100 nM. Take [4Pal]HC[Hyp][Tyr(3-I)]DLCHI (disulfide 3-8 (inferred)) [4Pal-H-C-Hyp-Y(3-I)-D-L-C-H-I]: the Kd was less than 100 nM.

(Values after patent US20070185311A1 (EPIX MEDICAL INC A DELAWARE, published 2007).)
